For experiment [1], the target named is T1, SEZ6 N3 (aa 170-335) on yeast (human, UniProt Q53EL9 189-354).
T1 construct: yeast display
T1 sequence: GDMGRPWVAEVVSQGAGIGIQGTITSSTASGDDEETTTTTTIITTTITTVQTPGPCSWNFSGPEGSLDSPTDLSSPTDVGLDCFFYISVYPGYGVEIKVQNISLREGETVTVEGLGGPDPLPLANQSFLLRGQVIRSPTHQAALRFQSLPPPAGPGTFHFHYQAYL
Nature of the experiment: yeast display, flow cytometry.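 Also: antibody binding to individual SEZ6 domains displayed on yeast, measured by flow cytometry, antibody at 50 nM purified or hybridoma supernatant diluted 1:2, 90 min on ice.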

Experiment [2] deals with T2, extracellular domain of cynomolgus SEZ6 on yeast (cynomolgus, UniProt Q53EL9 23-925 (human entry)).
T2 construct: yeast display; the whole entry is named; also called cSEZ6; cynomolgus SEZ6 ECD
T2 chain: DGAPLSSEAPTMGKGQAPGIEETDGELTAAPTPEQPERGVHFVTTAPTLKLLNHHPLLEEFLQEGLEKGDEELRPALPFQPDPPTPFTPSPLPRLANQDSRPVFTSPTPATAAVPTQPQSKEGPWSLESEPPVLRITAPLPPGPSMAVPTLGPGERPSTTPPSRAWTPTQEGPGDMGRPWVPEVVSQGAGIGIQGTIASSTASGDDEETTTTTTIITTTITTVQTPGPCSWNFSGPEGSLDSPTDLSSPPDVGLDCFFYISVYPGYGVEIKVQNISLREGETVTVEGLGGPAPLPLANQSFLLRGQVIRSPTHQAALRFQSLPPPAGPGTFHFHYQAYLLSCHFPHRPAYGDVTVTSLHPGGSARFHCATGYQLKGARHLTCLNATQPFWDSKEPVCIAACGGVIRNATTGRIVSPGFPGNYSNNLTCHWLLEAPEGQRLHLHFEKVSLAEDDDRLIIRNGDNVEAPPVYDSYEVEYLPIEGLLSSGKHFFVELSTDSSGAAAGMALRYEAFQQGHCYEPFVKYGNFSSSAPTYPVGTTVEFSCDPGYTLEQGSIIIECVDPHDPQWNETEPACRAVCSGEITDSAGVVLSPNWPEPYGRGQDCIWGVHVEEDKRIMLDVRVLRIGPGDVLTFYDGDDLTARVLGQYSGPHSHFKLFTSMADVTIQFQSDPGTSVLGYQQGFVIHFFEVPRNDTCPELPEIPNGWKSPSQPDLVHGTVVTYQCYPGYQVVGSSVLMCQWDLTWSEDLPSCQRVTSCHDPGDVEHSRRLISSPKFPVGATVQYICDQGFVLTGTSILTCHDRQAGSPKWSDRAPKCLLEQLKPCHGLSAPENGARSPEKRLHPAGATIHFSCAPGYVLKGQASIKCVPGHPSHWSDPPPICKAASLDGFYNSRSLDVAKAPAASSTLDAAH
Nature of the experiment: flow cytometry on yeast displaying the extracellular domain of cynomolgus SEZ6.

A further experiment has as its target T3, hSEZ6-ECD-His (human, UniProt Q53EL9 20-925).
T3 construct: the whole entry is named; also called recombinant SEZ6-His; human recombinant SEZ6-His
Nature of the experiment: bio-layer interferometry (ForteBio RED) or surface plasmon resonance (Biacore 2000) on human SEZ6-His; the table does not say which; column Hu Affinity (Kd, nM).

Another experiment has as its target T4, human SEZ6L ECD-His (human, UniProt Q9BYH1 29-955).
T4 construct: whole entry named
T4 sequence: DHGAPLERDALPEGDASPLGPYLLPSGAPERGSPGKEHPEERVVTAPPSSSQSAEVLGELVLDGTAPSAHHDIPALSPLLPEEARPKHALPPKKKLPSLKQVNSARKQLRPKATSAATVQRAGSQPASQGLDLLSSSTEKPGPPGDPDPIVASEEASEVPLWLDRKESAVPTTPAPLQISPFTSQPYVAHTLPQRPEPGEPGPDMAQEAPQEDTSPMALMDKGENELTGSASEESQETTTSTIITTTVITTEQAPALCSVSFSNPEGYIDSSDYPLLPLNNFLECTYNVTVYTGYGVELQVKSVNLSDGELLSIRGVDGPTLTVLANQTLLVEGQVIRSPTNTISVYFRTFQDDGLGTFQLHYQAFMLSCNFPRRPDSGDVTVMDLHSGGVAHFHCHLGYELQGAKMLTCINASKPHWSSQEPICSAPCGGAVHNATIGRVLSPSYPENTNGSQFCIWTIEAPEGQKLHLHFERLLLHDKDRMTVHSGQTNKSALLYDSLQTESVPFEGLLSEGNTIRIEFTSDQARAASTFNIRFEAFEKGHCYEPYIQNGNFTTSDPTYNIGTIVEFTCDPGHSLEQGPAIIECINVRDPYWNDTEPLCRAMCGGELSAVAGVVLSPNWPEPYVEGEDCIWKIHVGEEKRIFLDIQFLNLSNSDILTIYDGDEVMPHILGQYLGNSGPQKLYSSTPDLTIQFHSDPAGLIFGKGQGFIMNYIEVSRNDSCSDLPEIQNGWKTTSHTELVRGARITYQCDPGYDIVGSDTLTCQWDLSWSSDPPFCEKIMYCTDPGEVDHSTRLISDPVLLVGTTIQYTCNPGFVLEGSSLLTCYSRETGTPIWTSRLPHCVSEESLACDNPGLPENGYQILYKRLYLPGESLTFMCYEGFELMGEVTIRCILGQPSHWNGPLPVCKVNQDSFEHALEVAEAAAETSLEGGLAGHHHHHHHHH
Nature of the experiment: ELISA on plates coated with SEZ6L protein.

A further experiment addresses T5, rSEZ6-ECD-His (rat, UniProt Q7TSK2 20-922 (mouse entry)).
T5 construct: the whole entry is named; also called rat recombinant SEZ6-His; rat SEZ6 ECD
T5 chain: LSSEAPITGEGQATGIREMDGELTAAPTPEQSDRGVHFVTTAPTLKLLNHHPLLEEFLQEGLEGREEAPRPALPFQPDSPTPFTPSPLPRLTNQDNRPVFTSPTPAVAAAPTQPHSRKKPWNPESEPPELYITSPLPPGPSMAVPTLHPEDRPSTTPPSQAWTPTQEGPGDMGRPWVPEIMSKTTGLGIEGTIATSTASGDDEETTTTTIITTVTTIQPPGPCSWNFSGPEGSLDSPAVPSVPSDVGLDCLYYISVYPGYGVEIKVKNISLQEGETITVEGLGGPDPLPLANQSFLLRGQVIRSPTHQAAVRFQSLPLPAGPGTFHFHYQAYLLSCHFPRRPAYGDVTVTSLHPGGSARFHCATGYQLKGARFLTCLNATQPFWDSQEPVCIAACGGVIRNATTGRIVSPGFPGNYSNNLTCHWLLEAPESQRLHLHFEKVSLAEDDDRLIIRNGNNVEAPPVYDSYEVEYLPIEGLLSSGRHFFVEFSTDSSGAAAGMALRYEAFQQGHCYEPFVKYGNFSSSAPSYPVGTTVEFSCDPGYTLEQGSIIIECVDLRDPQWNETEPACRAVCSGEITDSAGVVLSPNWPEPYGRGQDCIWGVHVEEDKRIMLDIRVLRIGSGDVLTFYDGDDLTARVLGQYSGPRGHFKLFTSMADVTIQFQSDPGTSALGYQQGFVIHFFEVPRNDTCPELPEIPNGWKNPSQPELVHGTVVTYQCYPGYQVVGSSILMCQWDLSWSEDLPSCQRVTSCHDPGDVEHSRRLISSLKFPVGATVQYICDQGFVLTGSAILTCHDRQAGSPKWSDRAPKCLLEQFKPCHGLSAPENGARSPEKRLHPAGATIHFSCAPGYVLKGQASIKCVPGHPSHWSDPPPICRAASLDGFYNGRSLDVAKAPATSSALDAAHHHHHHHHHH
Nature of the experiment: bio-layer interferometry (ForteBio RED) or surface plasmon resonance (Biacore 2000) on rat SEZ6-His; the table does not say which; column Rat XR (Kd, nM).

In another experiment the target is T6, human SEZ6L2 ECD-His (human, UniProt Q6UXD5 28-843).
T6 construct: whole entry named
Briefly: ELISA on plates coated with SEZ6L2 protein.

Experiment [3] has as its target T7, SEZ6 Sushi Domain 1 (amino acids 336-395) on yeast (human, UniProt Q53EL9 355-414).
T7 construct: yeast display
Nature of the experiment: yeast display, flow cytometry.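 Also: antibody binding to individual SEZ6 domains displayed on yeast, measured by flow cytometry, antibody at 50 nM purified or hybridoma supernatant diluted 1:2, 90 min on ice.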

Experiment [4] concerns the target T8, rat SEZ6 on RIN-m5F cells (rat, UniProt Q7TSK2 20-991 (mouse entry)).
T8 construct: endogenous on RIN-m5F cells; also called rSEZ6
T8 chain: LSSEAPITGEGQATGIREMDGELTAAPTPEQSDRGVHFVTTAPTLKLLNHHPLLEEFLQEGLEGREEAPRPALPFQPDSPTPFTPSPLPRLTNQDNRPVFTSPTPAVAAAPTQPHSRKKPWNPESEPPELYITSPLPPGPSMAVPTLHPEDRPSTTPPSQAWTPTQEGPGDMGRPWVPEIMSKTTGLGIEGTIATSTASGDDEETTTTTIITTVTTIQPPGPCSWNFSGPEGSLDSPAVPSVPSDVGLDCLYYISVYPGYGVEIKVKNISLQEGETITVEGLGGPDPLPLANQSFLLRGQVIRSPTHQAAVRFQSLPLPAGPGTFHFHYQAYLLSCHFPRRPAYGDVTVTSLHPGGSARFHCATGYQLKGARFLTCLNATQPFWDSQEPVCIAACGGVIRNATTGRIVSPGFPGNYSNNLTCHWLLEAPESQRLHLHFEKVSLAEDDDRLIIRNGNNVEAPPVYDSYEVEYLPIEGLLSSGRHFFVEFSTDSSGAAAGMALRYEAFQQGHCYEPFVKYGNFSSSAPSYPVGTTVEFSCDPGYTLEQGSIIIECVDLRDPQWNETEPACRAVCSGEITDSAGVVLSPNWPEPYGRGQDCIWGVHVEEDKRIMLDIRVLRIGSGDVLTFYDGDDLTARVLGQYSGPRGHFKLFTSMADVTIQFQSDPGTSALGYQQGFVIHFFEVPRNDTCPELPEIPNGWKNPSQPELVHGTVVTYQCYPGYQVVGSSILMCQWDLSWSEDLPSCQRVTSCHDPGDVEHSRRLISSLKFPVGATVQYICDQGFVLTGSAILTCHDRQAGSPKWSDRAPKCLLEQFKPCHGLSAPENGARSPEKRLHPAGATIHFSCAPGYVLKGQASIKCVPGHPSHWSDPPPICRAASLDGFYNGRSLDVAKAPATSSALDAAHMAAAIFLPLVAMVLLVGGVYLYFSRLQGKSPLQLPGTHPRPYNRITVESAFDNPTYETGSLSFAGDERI
Briefly: flow cytometry on RIN-m5F cells expressing rat SEZ6, verified by BLI or SPR on rat SEZ6-His.

For experiment [5], the target named is T9, mouse SEZ6 on Neuro2a cells (mouse, UniProt Q7TSK2 20-991).
T9 construct: endogenous on Neuro2a cells; also called murine SEZ6; mSEZ6
Nature of the experiment: flow cytometry on Neuro2a cells expressing mouse SEZ6.

T6 sequence (Q6UXD5 other isoform, or with tags, fused parts or gaps): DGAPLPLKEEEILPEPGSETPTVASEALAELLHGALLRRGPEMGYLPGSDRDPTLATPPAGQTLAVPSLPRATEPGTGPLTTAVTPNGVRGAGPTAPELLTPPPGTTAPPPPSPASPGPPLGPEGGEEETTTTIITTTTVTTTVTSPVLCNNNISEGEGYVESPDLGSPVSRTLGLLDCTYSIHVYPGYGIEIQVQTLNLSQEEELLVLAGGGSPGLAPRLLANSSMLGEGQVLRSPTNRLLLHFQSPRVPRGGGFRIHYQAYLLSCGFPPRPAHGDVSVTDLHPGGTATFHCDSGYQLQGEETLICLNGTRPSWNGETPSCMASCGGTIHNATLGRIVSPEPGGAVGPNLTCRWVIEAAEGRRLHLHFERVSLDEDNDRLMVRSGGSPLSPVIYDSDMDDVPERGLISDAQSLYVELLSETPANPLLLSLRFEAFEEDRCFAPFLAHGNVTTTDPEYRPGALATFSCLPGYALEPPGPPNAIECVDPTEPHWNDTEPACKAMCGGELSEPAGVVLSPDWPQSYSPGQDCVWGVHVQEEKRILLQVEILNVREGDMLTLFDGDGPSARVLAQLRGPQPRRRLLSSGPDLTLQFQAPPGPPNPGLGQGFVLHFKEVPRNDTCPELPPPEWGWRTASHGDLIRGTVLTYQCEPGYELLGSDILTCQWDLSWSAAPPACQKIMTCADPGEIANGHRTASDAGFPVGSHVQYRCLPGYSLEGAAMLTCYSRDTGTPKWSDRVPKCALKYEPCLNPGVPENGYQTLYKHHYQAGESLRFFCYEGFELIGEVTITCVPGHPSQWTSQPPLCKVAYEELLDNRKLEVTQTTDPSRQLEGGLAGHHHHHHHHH

B1: SC17.91 (antibody, V domains shown)
VH: EVQLVESGGGLVKPGGSRKLSCAASGFTFSDYGMHWVRQAPEKGLEWVAYISRGSSTIHYADTVKGRFTISRDNAKNTLFLQMTSLRSEDTAMYYCARPFNWYFDVWGAGTTVTVSS
VL: DVVMTQTPLSLPVSLGDQASISCRSSQSLVHSNGNTYLLWYLQKPGQSPKLLIYKVSNRFSGVPDRFSGSGSGTDFALKISRVEAEDLGVYFCSQSTHVPWTFGGGTKLEIK
notes: murine mAb
B1: the binding result in [1] is “binds”.

B2: SC17.161 (antibody, V domains shown)
VH: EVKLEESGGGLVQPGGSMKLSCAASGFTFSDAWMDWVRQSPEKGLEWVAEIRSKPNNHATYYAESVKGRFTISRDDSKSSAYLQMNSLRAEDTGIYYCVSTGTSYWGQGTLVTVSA
VL: DIVMSQSPSSLAVSVGEKVTMNCESSQSLLYNSNQKNYLAWYQQKPGQSPKLLIYWASTRDSGVPDRFTGSGSGTDFTLTISSVRADDPAVYYCQQYFNYPLTFGAGTKLELK
notes: murine mAb
For B2, the binding result in experiment [1] was “binds”.

B3: SC17.42 (antibody, V domains shown)
VH: DVKLVESGGGLVRPGGSLKLSCAASGFTFSRYTMSWVRQTPEKRLEWAATINSGGSNTYYPDSVKGRFTISRDNAKNTLFLQMSSLKSEDTAMYYCTNGNHWGQGTTLTVSS
VL: ENVLTQSPAIMSASPGEKVTMTCSASSSVNYMYWYQQKSSTSPKLWIYDTSKLTSGVPGRFSGSGSGNSYSLTISNMEAEDVATYYCFQGSGYPLTFGSGTKLEIK
notes: murine mAb
Regarding B3, the binding result in [2] is “no binding (tested: 5 µg/mL)”; with human SEZ6L ECD-His, “no binding (tested: 1 µg/mL)”; with human SEZ6L2 ECD-His it was “no binding (tested: 1 µg/mL)”. Besides, the Kd with hSEZ6-ECD-His was 2.7 nM; with rSEZ6-ECD-His it was 3 nM.

B4: SC17.46 (antibody, V domains shown)
VH: QVQLQQPGAELVKPGASMKLSCKASGYTFTSYWINWVKQRPGQGLEWIGNIFPDTTTTNYNEKFKSKATLTVDTSSSTAYMQLSSLTSDDSAVYYCAREYYDGTYDAMDYWGQGTSVTV
VL: SFVMTQTPKFLLVSAGDRVTITCKASQSVNNDVAWYQQKPGQSPKLLIYYASNRYTGVPDRFTGSGYGTDFTFTISTVQAEDLAVYFCQQDYSSPRTFGGGTKLEIK
notes: murine mAb
For the molecule B4, the binding result was “binds” in experiment [3]; “no binding (tested: 5 µg/mL)” in experiment [4]; “no binding (tested: 5 µg/mL)” in experiment [2]; “no binding (tested: 5 µg/mL)” in experiment [5]; “no binding (tested: 1 µg/mL)” in the experiment with human SEZ6L ECD-His; “no binding (tested: 1 µg/mL)” with human SEZ6L2 ECD-His.

These data come from patent publication US20190022241A1 (AbbVie / Abbott, published 2019).
